# Test results taken from patent US20260242478A1 (published 2026).
# Target: Anti-CD28 Fab (SEQ ID NOs: 696, 697)
# Experiment: phage binding ELISA; Fab-coated wells pre-incubated with CD28 antigen as competitor;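 also: clonal phage supernatants added to wells preincubated with CD28 antigen or blocking buffer only, bound phage detected with HRP-conjugated anti-M13 antibody, buffer-only wells as control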
# Target sequence in this assay (VH, as listed by the source, chain 1 of 2): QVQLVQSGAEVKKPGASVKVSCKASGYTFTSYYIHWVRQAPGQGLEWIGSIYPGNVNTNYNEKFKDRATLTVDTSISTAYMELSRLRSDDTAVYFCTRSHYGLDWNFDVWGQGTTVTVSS
# Target sequence in this assay (VL, as listed by the source, chain 2 of 2): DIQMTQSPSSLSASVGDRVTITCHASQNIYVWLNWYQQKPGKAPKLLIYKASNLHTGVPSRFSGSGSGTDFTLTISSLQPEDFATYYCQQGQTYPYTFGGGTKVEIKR
# Experimental: (§1) Clonal phage were harvested as crude supematants and screened via standard ELISAs. […] Prior to the addition of clonal phage, wells were incubated with blocking buffer and CD28 antigen or blocking buffer alone. Without washing or aspirating, clonal phage supematants were then added to the wells and incubated for a short time. Wells were then washed followed by detection of bound phage using a horse radish conjugated anti-M13 antibody.
row,Binder,Anti-CD28 Fab signal in the presence of CD28
1,PCAAGAHYTWPTCL [Phage-1604],0.07

# Target: T1, Anti-CD28 Fab (SEQ ID NOs: 696, 697)
# T1 construct: In the phage ELISA the Fab was biotinylated and captured on neutravidin coated plates
# Experiment: phage ELISA; biotinylated anti-CD28 Fab on neutravidin plate, bound phage detected with anti-M13-HRP
# T1 sequence (VH, as listed by the source, chain 1 of 2): as the sequence (VH, as listed by the source, chain 1 of 2) above
# T1 sequence (VL, as listed by the source, chain 2 of 2): as the sequence (VL, as listed by the source, chain 2 of 2) above
# Experimental: as §1
row,Binder,"Phage binding ELISA, Anti-CD28 Fab signal"
1,RCAAVFSYTWPPCL [Phage-1618],1.29
2,TCAAGVPYKWPPCL [Phage-1616],1.29
3,SCAAGAMWEWPKCF [Phage-1610],1.32
4,QCSAGATYAWPFCL [Phage-1615],1.29
5,SCAAGATYTWPFCL [Phage-1617],1.29
6,TCSAGAHYSWPKCF [Phage-1606],1.33
7,SCSAGATYTWPACL [Phage-1605],1.34
8,TCAAGATYEWPSCL [Phage-1612],1.32
9,LCAAGAAWEWPMCF [Phage-1614],1.3
10,SCAEVFNYVWPFCF [Phage-1608],1.32
11,TCAAGAAYTWPVCF [Phage-1609],1.32
12,SCSAGAMYTWPTCL [Phage-1613],1.31
13,SCAAGAHYPWPECL [Phage-1607],1.32
14,SCADGAIWEWPWCF [Phage-1611],1.32

# Target: T2, Anti-CD28 Fab (SEQ ID NOs: 696, 697)
# T2 construct: In the phage ELISA the Fab was biotinylated and captured on neutravidin coated plates
# Experiment: phage binding ELISA; biotinylated Fab on neutravidin plate, clonal phage supernatant, anti-M13 HRP detection
# T2 sequence (VH, as listed by the source, chain 1 of 2): as the sequence (VH, as listed by the source, chain 1 of 2) above
# T2 sequence (VL, as listed by the source, chain 2 of 2): as the sequence (VL, as listed by the source, chain 2 of 2) above
# Experimental: (§2) Clonal phage were harvested as crude supematants and screened via standard ELISAs. […] Prior to the addition of clonal phage, wells were incubated with blocking buffer and CD28 antigen or blocking buffer alone. Without washing or aspirating, clonal phage supematants were then added to the wells and incubated for a short time. Wells were then washed followed by detection of bound phage using a horse radish conjugated anti-M13 antibody. Clonal phage of interest were then sent for sequence analysis.
row,Binder,"Anti-CD28 Fab (SEQ ID NOs: 696, 697) signal"
1,QCAAGATYPWPVCL [Phage-1647],1.13

# Target: Anti-CD28 Fab (SEQ ID NOs: 696, 697)
# Experiment: phage binding ELISA; biotinylated Fab on neutravidin plate, bound phage detected with anti-M13-HRP
# Target sequence in this assay (VH, as listed by the source, chain 1 of 2): as the sequence (VH, as listed by the source, chain 1 of 2) above
# Target sequence in this assay (VL, as listed by the source, chain 2 of 2): as the sequence (VL, as listed by the source, chain 2 of 2) above
# Experimental: as §1
row,Binder,Anti-CD28 Fab signal
1,PCAAGAHYTWPTCL [Phage-1604],1.34

# Target: Anti-CD28 Fab (SEQ ID NOs: 696, 697)
# Experiment: phage binding ELISA; biotinylated anti-CD28 Fab on neutravidin plate, clonal phage, anti-M13 HRP detection
# Target sequence in this assay (VH, as listed by the source, chain 1 of 2): as the sequence (VH, as listed by the source, chain 1 of 2) above
# Target sequence in this assay (VL, as listed by the source, chain 2 of 2): as the sequence (VL, as listed by the source, chain 2 of 2) above
# Experimental: as §2
row,Binder,Anti-CD28 Fab signal (phage binding ELISA)
1,"SCSAGAGWAWPMCF (Tested as clonal phage supernatant) [Phage-1643 (peptide-92 library clone, SEQ ID NO: 1939)]",1.16
2,"LCAAGATYPWPDCV (Tested as clonal phage supernatant) [Phage-1635 (peptide-92 library clone, SEQ ID NO: 1931)]",1.21
3,"TCSAGATYSWPSCF (Tested as clonal phage supernatant) [Phage-1634 (peptide-92 library clone, SEQ ID NO: 1930)]",1.21
4,"TCAAGANWPWPECL (Tested as clonal phage supernatant) [Phage-1636 (peptide-92 library clone, SEQ ID NO: 1932)]",1.21
5,"SCSAGATWAWPQCF (Tested as clonal phage supernatant) [Phage-1641 (peptide-92 library clone, SEQ ID NO: 1937)]",1.19
6,"TCAAGANYSWPACL (Tested as clonal phage supernatant) [Phage-1646 (peptide-92 library clone, SEQ ID NO: 1942)]",1.14
7,"LCSAGAMYPWPVCL (Tested as clonal phage supernatant) [Phage-1640 (peptide-92 library clone, SEQ ID NO: 1936)]",1.19
8,"LCEEFFHYSWPLCL (Tested as clonal phage supernatant) [Phage-1637 (peptide-92 library clone, SEQ ID NO: 1933)]",1.21
9,"SCAAGFDYGWPMCL (Tested as clonal phage supernatant) [Phage-1644 (peptide-92 library clone, SEQ ID NO: 1940)]",1.16
10,"SCADGFNYVWPLCF (Tested as clonal phage supernatant) [Phage-1645 (peptide-92 library clone, SEQ ID NO: 1941)]",1.14
11,"SCAAGAHWSWPVCF (Tested as clonal phage supernatant) [Phage-1639 (peptide-92 library clone, SEQ ID NO: 1935)]",1.2
12,"TCSAGATYSWPYCL (Tested as clonal phage supernatant) [Phage-1633 (peptide-92 library clone, SEQ ID NO: 1929)]",1.22
13,"PCSDGVAYPWPYCV (Tested as clonal phage supernatant) [Phage-1638 (peptide-92 library clone, SEQ ID NO: 1934)]",1.2
14,"SCSAVFSYRWPKCL (Tested as clonal phage supernatant) [Phage-1642 (peptide-92 library clone, SEQ ID NO: 1938)]",1.18

# Target: Anti-CD28 Fab (SEQ ID NOs: 696, 697)
# Experiment: phage binding ELISA on captured anti-CD28 Fab, wells pre-incubated with CD28 antigen as competitor
# Target sequence in this assay (VH, as listed by the source, chain 1 of 2): as the sequence (VH, as listed by the source, chain 1 of 2) above
# Target sequence in this assay (VL, as listed by the source, chain 2 of 2): as the sequence (VL, as listed by the source, chain 2 of 2) above
# Experimental: as §2
row,Binder,Anti-CD28 Fab signal in the presence of CD28 (phage binding ELISA)
1,"SCSAGAGWAWPMCF (Tested as clonal phage supernatant) [Phage-1643 (peptide-92 library clone, SEQ ID NO: 1939)]",0.08
2,"LCAAGATYPWPDCV (Tested as clonal phage supernatant) [Phage-1635 (peptide-92 library clone, SEQ ID NO: 1931)]",0.05
3,"TCSAGATYSWPSCF (Tested as clonal phage supernatant) [Phage-1634 (peptide-92 library clone, SEQ ID NO: 1930)]",0.09
4,"TCAAGANWPWPECL (Tested as clonal phage supernatant) [Phage-1636 (peptide-92 library clone, SEQ ID NO: 1932)]",0.08
5,"SCSAGATWAWPQCF (Tested as clonal phage supernatant) [Phage-1641 (peptide-92 library clone, SEQ ID NO: 1937)]",0.08
6,"TCAAGANYSWPACL (Tested as clonal phage supernatant) [Phage-1646 (peptide-92 library clone, SEQ ID NO: 1942)]",0.08
7,"LCSAGAMYPWPVCL (Tested as clonal phage supernatant) [Phage-1640 (peptide-92 library clone, SEQ ID NO: 1936)]",0.08
8,"LCEEFFHYSWPLCL (Tested as clonal phage supernatant) [Phage-1637 (peptide-92 library clone, SEQ ID NO: 1933)]",0.06
9,"SCAAGFDYGWPMCL (Tested as clonal phage supernatant) [Phage-1644 (peptide-92 library clone, SEQ ID NO: 1940)]",0.06
10,"SCADGFNYVWPLCF (Tested as clonal phage supernatant) [Phage-1645 (peptide-92 library clone, SEQ ID NO: 1941)]",0.08
11,"SCAAGAHWSWPVCF (Tested as clonal phage supernatant) [Phage-1639 (peptide-92 library clone, SEQ ID NO: 1935)]",0.08
12,"TCSAGATYSWPYCL (Tested as clonal phage supernatant) [Phage-1633 (peptide-92 library clone, SEQ ID NO: 1929)]",0.07
13,"PCSDGVAYPWPYCV (Tested as clonal phage supernatant) [Phage-1638 (peptide-92 library clone, SEQ ID NO: 1934)]",0.06
14,"SCSAVFSYRWPKCL (Tested as clonal phage supernatant) [Phage-1642 (peptide-92 library clone, SEQ ID NO: 1938)]",0.06

# Target: T3, Anti-CD28 Fab (SEQ ID NOs: 696, 697)
# T3 construct: In the phage ELISA the Fab was biotinylated and captured on neutravidin coated plates
# Experiment: phage ELISA on captured anti-CD28 Fab; wells pre-incubated with CD28 antigen as competitor;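 also: clonal phage from crude supernatants added to wells pretreated with blocking buffer with or without CD28, bound phage read by ELISA with HRP-conjugated anti-M13 antibody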
# Experimental: as §2
row,Binder,"Phage binding ELISA, Anti-CD28 Fab signal in the presence of CD28"
1,SCAAGATYSWPACL [Phage-1624],0.07
2,TCSAGASWGWPWCL [Phage-1632],0.07
3,TCAAGATYMWPVCL [Phage-1627],0.07
4,TCTAGFSYKWPTCL [Phage-1621],0.09
5,SCSAGATYQWPYCF [Phage-1623],0.06
6,SCAAGATWKWPECL [Phage-1628],0.07
7,NCAAGAMYSWPTCL [Phage-1625],0.07
8,NCSAGATWPWPMCF [Phage-1622],0.06
9,TCADGAFWQWPVCL [Phage-1631],0.07
10,TCAAGAVWTWPICF [Phage-1630],0.05
11,RCAAGAMWTWPACF [Phage-1626],0.06
12,TCAAGATWLWPWCL [Phage-1629],0.07
13,LCAAGAYYPWPLCF [Phage-1620],0.06
14,TCSAGATYKWPACF [Phage-1619],0.05

# Target: T1, Anti-CD28 Fab (SEQ ID NOs: 696, 697)
# Experiment: as above
# Experimental: as §2
row,Binder,"Phage binding ELISA, Anti-CD28 Fab signal in the presence of CD28"
1,RCAAVFSYTWPPCL [Phage-1618],0.07
2,TCAAGVPYKWPPCL [Phage-1616],0.06
3,SCAAGAMWEWPKCF [Phage-1610],0.09
4,QCSAGATYAWPFCL [Phage-1615],0.08
5,SCAAGATYTWPFCL [Phage-1617],0.07
6,TCSAGAHYSWPKCF [Phage-1606],0.07
7,SCSAGATYTWPACL [Phage-1605],0.07
8,TCAAGATYEWPSCL [Phage-1612],0.09
9,LCAAGAAWEWPMCF [Phage-1614],0.06
10,SCAEVFNYVWPFCF [Phage-1608],0.07
11,TCAAGAAYTWPVCF [Phage-1609],0.08
12,SCSAGAMYTWPTCL [Phage-1613],0.08
13,SCAAGAHYPWPECL [Phage-1607],0.05
14,SCADGAIWEWPWCF [Phage-1611],0.07

# Target: T2, Anti-CD28 Fab (SEQ ID NOs: 696, 697)
# Experiment: phage binding ELISA on captured Fab; wells pre-incubated with CD28 antigen as competitor
# Experimental: as §1
row,Binder,Anti-CD28 Fab signal in the presence of CD28
1,QCAAGATYPWPVCL [Phage-1647],0.09

# Target: T3, Anti-CD28 Fab (SEQ ID NOs: 696, 697)
# Experiment: phage ELISA; biotinylated anti-CD28 Fab captured on neutravidin plate, clonal phage detected with HRP anti-M13 antibody
# Experimental: as §1
row,Binder,"Phage binding ELISA, Anti-CD28 Fab signal"
1,SCAAGATYSWPACL [Phage-1624],1.25
2,TCSAGASWGWPWCL [Phage-1632],1.22
3,TCAAGATYMWPVCL [Phage-1627],1.24
4,TCTAGFSYKWPTCL [Phage-1621],1.28
5,SCSAGATYQWPYCF [Phage-1623],1.26
6,SCAAGATWKWPECL [Phage-1628],1.24
7,NCAAGAMYSWPTCL [Phage-1625],1.25
8,NCSAGATWPWPMCF [Phage-1622],1.27
9,TCADGAFWQWPVCL [Phage-1631],1.22
10,TCAAGAVWTWPICF [Phage-1630],1.23
11,RCAAGAMWTWPACF [Phage-1626],1.25
12,TCAAGATWLWPWCL [Phage-1629],1.23
13,LCAAGAYYPWPLCF [Phage-1620],1.28
14,TCSAGATYKWPACF [Phage-1619],1.29
